B1: Abl interactor 2 (Homo sapiens), Q9NYB9 (parent)
chain: MAELQMLLEEEIPGGRRALFDSYTNLERVADYCENNYIQSADKQRALEETKAYTTQSLASVAYLINTLANNVLQMLDIQASQLRRMESSINHISQTVDIHKEKVARREIGILTTNKNTSRTHKIIAPANLERPVRYIRKPIDYTILDDIGHGVKWLLRFKVSTQNMKMGGLPRTTPPTQKPPSPPMSGKGTLGRHSPYRTLEPVRPPVVPNDYVPSPTRNMAPSQQSPVRTASVNQRNRTYSSSGSSGGSHPSSRSSSRENSGSGSVGVPIAVPTPSPPSVFPAPAGSAGTPPLPATSASAPAPLVPATVPSSTAPNAAAGGAPNLADGFTSPTPPVVSSTPPTGHPVQFYSMNRPASRHTPPTIGGSLPYRRPPSITSQTSLQNQMNGGPFYSQNPVSDTPPPPPPVEEPVFDESPPPPPPPEDYEEEEAAVVEYSDPYAEEDPPWAPRSYLEKVVAIYDYTKDKEDELSFQEGAIIYVIKKNDDGWYEGVMNGVTGLFPGNYVESIMHYSE
B2: Ribosome production factor 1 (Homo sapiens), Q9H9Y2 (parent)
chain: MAKAGDKSSSSGKKSLKRKAAAEELQEAAGAGDGATENGVQPPKAAAFPPGFSISEIKNKQRRHLMFTRWKQQQRKEKLAAKKKLKKEREALGDKAPPKPVPKTIDNQRVYDETTVDPNDEEVAYDEATDEFASYFNKQTSPKILITTSDRPHGRTVRLCEQLSTVIPNSHVYYRRGLALKKIIPQCIARDFTDLIVINEDRKTPNGLILSHLPNGPTAHFKMSSVRLRKEIKRRGKDPTEHIPEIILNNFTTRLGHSIGRMFASLFPHNPQFIGRQVATFHNQRDYIFFRFHRYIFRSEKKVGIQELGPRFTLKLRSLQKGTFDSKYGEYEWVHKPREMDTSRRKFHL
partner: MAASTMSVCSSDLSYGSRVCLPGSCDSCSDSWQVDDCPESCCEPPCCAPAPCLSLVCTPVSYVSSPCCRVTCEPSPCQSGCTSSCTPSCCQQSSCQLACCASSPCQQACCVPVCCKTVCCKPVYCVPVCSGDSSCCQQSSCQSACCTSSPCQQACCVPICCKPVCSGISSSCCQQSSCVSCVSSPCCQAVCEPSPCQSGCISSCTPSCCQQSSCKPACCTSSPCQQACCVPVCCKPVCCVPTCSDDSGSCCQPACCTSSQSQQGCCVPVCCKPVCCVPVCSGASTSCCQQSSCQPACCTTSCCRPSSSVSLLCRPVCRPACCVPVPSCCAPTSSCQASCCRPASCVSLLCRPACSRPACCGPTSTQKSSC
B3: Protein SSX5 (Homo sapiens), O60225 (parent)
chain: MNGDDAFVRRPRVGSQIPEKMQKAFDDIAKYFSEKEWEKMKASEKIIYVYMKRKYEAMTKLGFKATLPPFMRNKRVADFQGNDFDNDPNRGNQVEHPQMTFGRLQGIFPKITPEKPAEEGNDSKGVPEASGPQNNGKQLRPSGKLNTSEKVNKTSGPKRGKHAWTHRVRERKQLVIYEEISDPQEDDE
partner: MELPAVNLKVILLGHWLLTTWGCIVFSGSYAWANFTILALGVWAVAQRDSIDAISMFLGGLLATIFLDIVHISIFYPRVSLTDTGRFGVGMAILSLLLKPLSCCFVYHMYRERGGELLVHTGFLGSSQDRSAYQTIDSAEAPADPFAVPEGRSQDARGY
B4: Late cornified envelope protein 1B (Homo sapiens), Q5T7P3 (parent)
chain: MSCQQNQQQCQPPPKCIPKCPPKCLTPRCPPKCPPKCPPVSSCCSVSSGGCCGSSSGGSCGSSSGGCCSSGGGGCCLSHHRRRRSHCHRPQSSGCCSQPSGGSSCCGGGSGQHSGGCC
partner: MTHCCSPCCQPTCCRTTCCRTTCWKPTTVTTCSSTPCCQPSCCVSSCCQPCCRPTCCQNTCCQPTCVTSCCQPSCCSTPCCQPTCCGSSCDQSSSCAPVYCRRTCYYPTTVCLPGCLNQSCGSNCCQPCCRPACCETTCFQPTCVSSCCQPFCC
B5: ADP/ATP translocase 3 (Homo sapiens), P12236 (parent)
chain: MTEQAISFAKDFLAGGIAAAISKTAVAPIERVKLLLQVQHASKQIAADKQYKGIVDCIVRIPKEQGVLSFWRGNLANVIRYFPTQALNFAFKDKYKQIFLGGVDKHTQFWRYFAGNLASGGAAGATSLCFVYPLDFARTRLAADVGKSGTEREFRGLGDCLVKITKSDGIRGLYQGFSVSVQGIIIYRAAYFGVYDTAKGMLPDPKNTHIVVSWMIAQTVTAVAGVVSYPFDTVRRRMMMQSGRKGADIMYTGTVDCWRKIFRDEGGKAFFKGAWSNVLRGMGGAFVLVLYDELKKVI
B6: Methanethiol oxidase (Homo sapiens), Q13228 (parent)
chain: MATKCGNCGPGYSTPLEAMKGPREEIVYLPCIYRNTGTEAPDYLATVDVDPKSPQYCQVIHRLPMPNLKDELHHSGWNTCSSCFGDSTKSRTKLVLPSLISSRIYVVDVGSEPRAPKLHKVIEPKDIHAKCELAFLHTSHCLASGEVMISSLGDVKGNGKGGFVLLDGETFEVKGTWERPGGAAPLGYDFWYQPRHNVMISTEWAAPNVLRDGFNPADVEAGLYGSHLYVWDWQRHEIVQTLSLKDGLIPLEIRFLHNPDAAQGFVGCALSSTIQRFYKNEGGTWSVEKVIQVPPKKVKGWLLPEMPGLITDILLSLDDRFLYFSNWLHGDLRQYDISDPQRPRLTGQLFLGGSIVKGGPVQVLEDEELKSQPEPLVVKGKRVAGGPQMIQLSLDGKRLYITTSLYSAWDKQFYPDLIREGSVMLQVDVDTVKGGLKLNPNFLVDFGKEPLGPALAHELRYPGGDCSSDIWI
partner: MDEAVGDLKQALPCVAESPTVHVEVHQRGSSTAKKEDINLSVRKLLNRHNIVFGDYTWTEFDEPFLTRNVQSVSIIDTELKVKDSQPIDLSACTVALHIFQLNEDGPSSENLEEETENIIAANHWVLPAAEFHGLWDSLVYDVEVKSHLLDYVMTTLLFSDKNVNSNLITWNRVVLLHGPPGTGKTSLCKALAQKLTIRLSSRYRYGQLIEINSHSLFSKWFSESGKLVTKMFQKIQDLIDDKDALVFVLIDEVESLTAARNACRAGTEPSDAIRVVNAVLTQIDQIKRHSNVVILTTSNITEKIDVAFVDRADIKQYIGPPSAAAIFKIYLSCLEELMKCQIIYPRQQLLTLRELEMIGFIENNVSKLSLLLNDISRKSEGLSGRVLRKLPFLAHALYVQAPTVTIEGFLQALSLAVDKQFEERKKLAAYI
B7: Late cornified envelope protein 1B (Homo sapiens), Q5T7P3 (parent)
chain: B4 chain
partner: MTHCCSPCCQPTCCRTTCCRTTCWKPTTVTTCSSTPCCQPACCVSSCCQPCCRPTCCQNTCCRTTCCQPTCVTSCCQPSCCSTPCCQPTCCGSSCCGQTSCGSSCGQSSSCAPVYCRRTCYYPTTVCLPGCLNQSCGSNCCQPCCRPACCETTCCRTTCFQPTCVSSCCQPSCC
B8: Late cornified envelope protein 1B (Homo sapiens), Q5T7P3 (parent)
chain: B4 chain
partner: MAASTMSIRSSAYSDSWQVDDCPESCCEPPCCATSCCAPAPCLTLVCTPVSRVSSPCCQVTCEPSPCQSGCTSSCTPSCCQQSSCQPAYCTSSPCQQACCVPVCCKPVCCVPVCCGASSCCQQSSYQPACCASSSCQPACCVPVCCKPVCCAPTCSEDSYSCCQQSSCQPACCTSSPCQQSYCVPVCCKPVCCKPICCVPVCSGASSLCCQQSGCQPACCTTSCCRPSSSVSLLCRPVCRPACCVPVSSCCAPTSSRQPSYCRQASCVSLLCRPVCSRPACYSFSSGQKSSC

Variants of: B1
Details: with ift20_human IFT20, Q8IY31
ift20_human IFT20, Q8IY31, sequence (Q8IY31 whole entry): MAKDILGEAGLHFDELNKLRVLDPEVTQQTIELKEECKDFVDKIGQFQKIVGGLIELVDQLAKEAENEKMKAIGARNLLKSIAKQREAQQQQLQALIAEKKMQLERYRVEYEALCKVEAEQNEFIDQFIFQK

Variant | effect of a mutation on the interaction
R373C | with no effect

Variants of: B1
Details: with k1h1_human KRT31, Q15323

Variant | effect of a mutation on the interaction
R373C | with no effect

Variants of: B1
Details: with aapk2_human PRKAA2, P54646

Variant | effect of a mutation on the interaction
R373C | with no effect

Variants of: B1
Details: with stam2_human STAM2, O75886

Variant | effect of a mutation on the interaction
R373C | with no effect

Variants of: B1
Details: with aapk1_human PRKAA1, Q13131
aapk1_human PRKAA1, Q13131, sequence (Q13131 whole entry, looked up): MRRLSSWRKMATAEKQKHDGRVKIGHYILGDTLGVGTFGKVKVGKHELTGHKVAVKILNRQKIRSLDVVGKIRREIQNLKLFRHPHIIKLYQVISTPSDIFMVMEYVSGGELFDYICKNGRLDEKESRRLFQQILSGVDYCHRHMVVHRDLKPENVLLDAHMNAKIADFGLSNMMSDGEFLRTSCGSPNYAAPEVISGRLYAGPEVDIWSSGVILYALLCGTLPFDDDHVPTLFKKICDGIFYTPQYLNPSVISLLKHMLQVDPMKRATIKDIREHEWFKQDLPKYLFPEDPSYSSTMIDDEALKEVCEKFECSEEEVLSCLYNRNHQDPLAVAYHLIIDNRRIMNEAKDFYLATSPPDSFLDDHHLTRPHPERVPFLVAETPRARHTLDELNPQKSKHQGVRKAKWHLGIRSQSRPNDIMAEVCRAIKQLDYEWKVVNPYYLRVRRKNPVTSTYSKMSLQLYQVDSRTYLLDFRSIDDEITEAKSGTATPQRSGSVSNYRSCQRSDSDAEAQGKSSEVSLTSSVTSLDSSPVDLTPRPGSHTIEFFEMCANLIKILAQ

Variant | effect of a mutation on the interaction
R373C | with no effect

Variants of: B1
Details: with hnrpk_human HNRNPK

Variant | effect of a mutation on the interaction
R373C | with no effect

Variants of: B1
Details: with vasp_human VASP

Variant | effect of a mutation on the interaction
R373C | with no effect

Variants of: B1
Details: with KRT15, P19012

Variant | effect of a mutation on the interaction
R373C | with no effect

Variants of: B1
Details: with nup62_human NUP62, P37198

Variant | effect of a mutation on the interaction
R373C | with no effect

Variants of: B1
Details: with KRT19, P08727

Variant | effect of a mutation on the interaction
R373C | with no effect

Variants of: B1
Details: with nck2_human NCK2, O43639
nck2_human NCK2, O43639, sequence (O43639 whole entry): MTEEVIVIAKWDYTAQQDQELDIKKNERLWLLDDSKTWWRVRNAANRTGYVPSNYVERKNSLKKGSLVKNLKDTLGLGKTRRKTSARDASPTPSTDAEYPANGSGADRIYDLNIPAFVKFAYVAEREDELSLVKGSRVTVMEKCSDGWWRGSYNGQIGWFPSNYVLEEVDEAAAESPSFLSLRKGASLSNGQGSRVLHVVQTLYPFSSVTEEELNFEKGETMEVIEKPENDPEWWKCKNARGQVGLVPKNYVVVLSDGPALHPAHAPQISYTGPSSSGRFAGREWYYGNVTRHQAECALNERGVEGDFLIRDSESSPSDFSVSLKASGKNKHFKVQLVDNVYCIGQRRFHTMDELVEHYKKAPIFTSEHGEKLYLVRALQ

Variant | effect of a mutation on the interaction
R373C | with no effect

Variants of: B1
Details: with hgs_human HGS

Variant | effect of a mutation on the interaction
R373C | with no effect

Variants of: B1
Details: with sdcb1_human SDCBP

Variant | effect of a mutation on the interaction
R373C | with no effect

Variants of: B1
Details: with tri32_human TRIM32, Q13049
tri32_human TRIM32, Q13049, sequence (Q13049 whole entry): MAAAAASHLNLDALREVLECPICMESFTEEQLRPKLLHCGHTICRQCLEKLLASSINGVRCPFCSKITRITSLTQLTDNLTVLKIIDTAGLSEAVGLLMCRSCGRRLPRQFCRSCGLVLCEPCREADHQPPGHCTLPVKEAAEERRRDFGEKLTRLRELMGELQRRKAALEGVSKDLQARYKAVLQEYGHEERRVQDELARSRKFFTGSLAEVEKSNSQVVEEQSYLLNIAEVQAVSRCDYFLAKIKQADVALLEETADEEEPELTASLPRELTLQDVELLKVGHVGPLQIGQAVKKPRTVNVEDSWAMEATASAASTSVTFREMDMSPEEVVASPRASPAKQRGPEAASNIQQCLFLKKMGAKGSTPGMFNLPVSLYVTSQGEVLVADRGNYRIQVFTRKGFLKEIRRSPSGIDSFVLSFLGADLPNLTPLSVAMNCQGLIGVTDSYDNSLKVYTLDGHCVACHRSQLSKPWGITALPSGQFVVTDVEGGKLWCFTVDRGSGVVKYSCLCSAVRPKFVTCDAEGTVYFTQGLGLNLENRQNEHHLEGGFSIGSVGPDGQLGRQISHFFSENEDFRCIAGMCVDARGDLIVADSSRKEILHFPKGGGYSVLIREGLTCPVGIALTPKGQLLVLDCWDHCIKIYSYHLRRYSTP

Variant | effect of a mutation on the interaction
R373C | with no effect

Variants of: B1
Details: with pcm1_human PCM1, Q15154
pcm1_human PCM1, Q15154, sequence (Q15154 whole entry): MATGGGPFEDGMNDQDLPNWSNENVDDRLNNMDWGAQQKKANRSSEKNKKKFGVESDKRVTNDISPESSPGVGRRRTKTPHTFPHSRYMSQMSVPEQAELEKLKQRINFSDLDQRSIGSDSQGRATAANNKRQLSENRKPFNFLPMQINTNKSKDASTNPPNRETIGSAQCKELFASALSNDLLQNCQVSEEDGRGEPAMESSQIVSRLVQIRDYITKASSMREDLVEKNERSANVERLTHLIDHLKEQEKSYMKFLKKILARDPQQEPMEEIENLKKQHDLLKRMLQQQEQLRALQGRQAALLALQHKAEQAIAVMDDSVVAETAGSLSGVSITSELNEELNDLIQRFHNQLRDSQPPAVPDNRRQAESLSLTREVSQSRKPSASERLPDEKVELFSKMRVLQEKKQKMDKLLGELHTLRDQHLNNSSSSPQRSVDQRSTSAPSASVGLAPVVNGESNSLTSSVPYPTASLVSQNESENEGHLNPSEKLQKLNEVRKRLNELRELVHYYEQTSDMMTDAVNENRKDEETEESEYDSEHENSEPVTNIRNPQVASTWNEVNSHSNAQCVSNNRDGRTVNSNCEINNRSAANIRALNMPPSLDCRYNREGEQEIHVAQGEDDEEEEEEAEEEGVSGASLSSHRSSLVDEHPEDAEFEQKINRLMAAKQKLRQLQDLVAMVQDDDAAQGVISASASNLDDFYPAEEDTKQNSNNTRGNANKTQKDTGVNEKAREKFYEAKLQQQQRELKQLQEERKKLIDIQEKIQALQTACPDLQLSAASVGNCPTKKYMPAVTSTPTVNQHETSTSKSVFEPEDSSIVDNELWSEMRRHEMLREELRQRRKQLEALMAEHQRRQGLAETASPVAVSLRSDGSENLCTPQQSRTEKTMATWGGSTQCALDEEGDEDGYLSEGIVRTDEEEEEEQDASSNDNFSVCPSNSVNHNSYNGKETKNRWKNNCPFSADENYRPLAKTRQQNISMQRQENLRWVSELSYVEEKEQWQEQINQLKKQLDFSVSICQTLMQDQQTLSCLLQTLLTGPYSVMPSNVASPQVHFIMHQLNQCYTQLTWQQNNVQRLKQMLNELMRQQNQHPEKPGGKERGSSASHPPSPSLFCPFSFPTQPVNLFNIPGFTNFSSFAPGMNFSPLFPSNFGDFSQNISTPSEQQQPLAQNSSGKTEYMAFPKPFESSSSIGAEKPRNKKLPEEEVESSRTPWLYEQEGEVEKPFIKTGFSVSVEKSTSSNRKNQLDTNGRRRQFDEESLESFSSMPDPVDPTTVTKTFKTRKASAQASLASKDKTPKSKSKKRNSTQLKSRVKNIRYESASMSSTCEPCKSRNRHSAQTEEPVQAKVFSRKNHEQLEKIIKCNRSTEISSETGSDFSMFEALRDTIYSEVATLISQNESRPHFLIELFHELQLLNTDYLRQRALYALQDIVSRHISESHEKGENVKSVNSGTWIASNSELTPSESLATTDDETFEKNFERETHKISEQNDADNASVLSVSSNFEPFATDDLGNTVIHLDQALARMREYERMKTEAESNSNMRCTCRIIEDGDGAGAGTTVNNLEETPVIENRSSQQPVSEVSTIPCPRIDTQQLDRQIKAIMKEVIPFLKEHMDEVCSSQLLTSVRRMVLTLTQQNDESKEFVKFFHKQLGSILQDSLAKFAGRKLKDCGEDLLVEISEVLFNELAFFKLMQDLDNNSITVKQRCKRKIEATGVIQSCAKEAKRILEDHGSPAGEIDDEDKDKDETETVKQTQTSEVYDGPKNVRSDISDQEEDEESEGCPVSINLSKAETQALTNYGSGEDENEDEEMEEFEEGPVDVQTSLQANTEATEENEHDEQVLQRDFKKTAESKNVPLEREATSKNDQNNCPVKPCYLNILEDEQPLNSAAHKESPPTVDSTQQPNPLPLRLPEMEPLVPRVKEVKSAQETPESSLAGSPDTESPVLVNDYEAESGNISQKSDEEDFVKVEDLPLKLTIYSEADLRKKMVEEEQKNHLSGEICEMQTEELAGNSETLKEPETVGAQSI

Variant | effect of a mutation on the interaction
R373C | with no effect

Variants of: B1
Details: with vinc_human VCL

Variant | effect of a mutation on the interaction
R373C | with no effect

Variants of: B1
Details: with crx_human CRX

Variant | effect of a mutation on the interaction
R373C | with no effect

Variants of: B1
Details: with mr1l1_human MRFAP1L1, Q96HT8
mr1l1_human MRFAP1L1, Q96HT8, sequence (Q96HT8 whole entry): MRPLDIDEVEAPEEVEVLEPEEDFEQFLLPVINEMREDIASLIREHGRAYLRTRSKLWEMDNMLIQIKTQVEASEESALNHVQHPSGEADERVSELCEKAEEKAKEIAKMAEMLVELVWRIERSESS

Variant | effect of a mutation on the interaction
R373C | with no effect

Variants of: B1
Details: with efs_human EFS

Variant | effect of a mutation on the interaction
R373C | with no effect

Variants of: B2
Details: with kr107_human KRTAP10-7, P60409

Variant | effect of a mutation on the interaction
P49T | with no effect

Variants of: B3
Details: with atrap_human AGTRAP

Variant | effect of a mutation on the interaction
K54R | disrupting interaction strength

Variants of: B4
Details: with kra94_human KRTAP9-4, Q9BYQ2

Variant | effect of a mutation on the interaction
C16Y | disrupting interaction strength

Variants of: B5
Details: with ap2b1_human AP2B1, P63010
ap2b1_human AP2B1, P63010, sequence (P63010 whole entry): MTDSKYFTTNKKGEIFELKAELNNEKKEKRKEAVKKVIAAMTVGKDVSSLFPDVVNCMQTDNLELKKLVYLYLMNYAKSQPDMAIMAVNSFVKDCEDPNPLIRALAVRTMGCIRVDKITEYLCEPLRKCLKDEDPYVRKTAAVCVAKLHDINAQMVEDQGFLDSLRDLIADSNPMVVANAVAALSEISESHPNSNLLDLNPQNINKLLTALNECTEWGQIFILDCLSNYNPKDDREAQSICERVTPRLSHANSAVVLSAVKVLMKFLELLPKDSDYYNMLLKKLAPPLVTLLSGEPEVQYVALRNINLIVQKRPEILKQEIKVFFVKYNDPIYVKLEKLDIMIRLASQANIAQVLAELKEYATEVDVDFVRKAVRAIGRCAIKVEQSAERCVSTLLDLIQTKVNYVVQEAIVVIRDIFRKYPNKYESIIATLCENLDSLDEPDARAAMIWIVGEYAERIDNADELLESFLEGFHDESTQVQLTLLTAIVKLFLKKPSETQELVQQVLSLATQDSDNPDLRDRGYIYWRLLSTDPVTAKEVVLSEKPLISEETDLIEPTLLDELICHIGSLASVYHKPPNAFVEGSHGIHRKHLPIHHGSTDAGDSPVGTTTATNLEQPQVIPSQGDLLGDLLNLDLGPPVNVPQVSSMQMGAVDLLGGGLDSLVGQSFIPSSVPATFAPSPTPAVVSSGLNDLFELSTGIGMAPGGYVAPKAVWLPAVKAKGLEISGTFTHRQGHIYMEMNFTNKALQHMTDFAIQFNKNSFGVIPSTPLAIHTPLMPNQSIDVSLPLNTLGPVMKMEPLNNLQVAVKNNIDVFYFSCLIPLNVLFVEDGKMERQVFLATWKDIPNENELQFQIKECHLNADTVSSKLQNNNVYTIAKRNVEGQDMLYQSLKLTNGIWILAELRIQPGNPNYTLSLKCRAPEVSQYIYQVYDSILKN

Variant | effect of a mutation on the interaction
T221M | with no effect

Variants of: B6
Details: with pch2_human TRIP13, Q15645

Variant | effect of a mutation on the interaction
R398C | with no effect

Variants of: B7
Details: with kra92_human KRTAP9-2, Q9BYQ4

Variant | effect of a mutation on the interaction
C16Y | disrupting interaction strength

Variants of: B8
Details: with kr109_human KRTAP10-9, P60411

Variant | effect of a mutation on the interaction
C16Y | disrupting interaction strength
